Measured values taken from paper PMC3750474.

Key:
[1] = biological target: HIV-1 capsid CAN (Human immunodeficiency virus 1) (UniProt O93182); conditions: cited from earlier work
[2] = biological target: HIV-1 M-group (NL4-3) N-terminal capsid domain; assay: ITC
[3] = biological target: HIV-1 M-group (NL4-3) N-terminal capsid domain (HIV-1 M-group (NL4-3)); assay: ITC; MicroCal ITC200, 15°C, 50 mM potassium phosphate pH 7.4, 100 mM NaCl, 1 mM DTT; NUP358Cyp (typical 2.5 mM) in the syringe, capsid domain (typical 0.2 mM) in the cell; one set of binding sites model
[4] = biological target: HIV-1 M-group (NL4-3) N-terminal capsid domain (HIV-1 M-group (NL4-3))

| Substance | Kd [1] [µM] | other: N (stoichiometry) [2] | other: ΔH [2] [kcal/mol] | other: ΔS ((cal/mol)/deg) [2] | Kd [3] [µM] | rate of cis-trans isomerization of the capsid G89-P90 bond catalysed by NUP358Cyp (NMR ZZ-exchange; 430 μM CA^N, 35 μM NUP358Cyp, 298 K) [4] [s⁻¹] |
| --- | --- | --- | --- | --- | --- | --- |
| NUP358 Cyp (from UniProt P49792) | 200 | – | – | – | – | – |
| cyclophilin domain from human NUP358 (from UniProt P49792) V61M; V113F | – | 1.43 | -7.45 | -5.26 | – | – |
| cyclophilin domain from human NUP358 (from UniProt P49792 3057-3224) (domain or fragment) | – | – | – | – | 94 | 12.1 |
| cyclophilin domain from human NUP358 (from UniProt P49792) V113F | – | 0.74 | -10.8 | -16.5 | – | – |
